Measurements reported in FireProtDB (doi:10.1021/bi982427c).

Details: Bos taurus; pH 5.3; 5 °C; GdnHCl; Fluorescence; Sodium acetate 0.02 M; reversible: yes; whole UniProt chain shown

B1: Acyl-CoA-binding protein wild type, P07107 (protein)
chain: MSQAEFDKAAEEVKHLKTKPADEEMLFIYSHYKQATVGDINTERPGMLDFKGKAKWDAWNELKGTSKEDAMKAYIDKVEELKKKYGI
In the case of B1, the unfolding free energy is reported as 7.89 kcal/mol.
